Patent US20240010722A1 (published 2024)
Substitutions are numbered along the chain they refer to.

T1: human MAdCAM (human, UniProt Q13477 19-317, limits assumed)
T1 construct: also called huMAdCAM; human MAdCAM-1
T1 sequence (looked up): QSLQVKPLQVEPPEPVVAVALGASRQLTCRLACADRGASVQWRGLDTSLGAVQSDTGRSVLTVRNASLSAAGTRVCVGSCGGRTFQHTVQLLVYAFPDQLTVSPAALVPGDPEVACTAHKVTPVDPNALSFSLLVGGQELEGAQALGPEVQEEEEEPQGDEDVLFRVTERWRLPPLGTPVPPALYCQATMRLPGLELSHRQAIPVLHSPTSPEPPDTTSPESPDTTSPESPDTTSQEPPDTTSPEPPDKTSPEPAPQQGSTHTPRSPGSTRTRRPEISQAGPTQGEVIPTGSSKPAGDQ

T2: mouse MAdCAM (mouse, UniProt Q61826 22-365, limits assumed)
T2 construct: also called mouse MAdCAM-1; muMAdCAM
T2 sequence (looked up): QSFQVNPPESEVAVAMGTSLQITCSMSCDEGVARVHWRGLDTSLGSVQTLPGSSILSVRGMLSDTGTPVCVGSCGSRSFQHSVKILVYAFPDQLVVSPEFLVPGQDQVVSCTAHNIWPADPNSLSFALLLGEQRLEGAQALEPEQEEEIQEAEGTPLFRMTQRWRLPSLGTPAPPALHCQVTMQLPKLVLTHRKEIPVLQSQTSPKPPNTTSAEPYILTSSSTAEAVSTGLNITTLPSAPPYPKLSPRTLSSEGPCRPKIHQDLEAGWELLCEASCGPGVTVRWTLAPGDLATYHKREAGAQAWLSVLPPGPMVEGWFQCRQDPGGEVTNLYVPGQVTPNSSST

B1: MIAB184 (antibody, V domains shown)
VH: EVQLLESGGGLVQPGGSLRLSCAASGFTFSSYWMHWVRQAPGKGLEWVSAISGSGGSTYYADSVKGRFTISRDNSKNTLYLQMNSLRAEDTAVYYCARDRPYYYYMDVWGKGTTVTVSS
VL: DIQMTQSPSSLSASVGDRVTITCRASQSISSSLAWYQQKPGKAPKLLIYAASSLQSGVPSRFSGSGSGTDFTLTISSLQPEDFATYYCQQYKSYPVTFGQGTKVEIK
notes: tested with human Fc; also called MIAB184-001
B2: PMAB53 (bispecific antibody, human IgG1, kappa)
heavy: EVQLLESGGGLVQPGGSLRLSCAASGFTFSSYDMSWVRQAPGKGLEWVSGITISGGSTYYADSVKGRFTISRDNSKNTLYLQMNSLRAEDTAVYYCARGRGGSGWLDYWGQGTTVTVSSASTKGPSVFPLAPSSKSTSGGTAALGCLVKDYFPEPVTVSWNSGALTSGVHTFPAVLQSSGLYSLSSVVTVPSSSLGTQTYICNVNHKPSNTKVDKKVEPKSCDKTHTCPPCPAPEAAGAPSVFLFPPKPKDTLMISRTPEVTCVVVDVSHEDPEVKFNWYVDGVEVHNAKTKPREEQYNSTYRVVSVLTVLHQDWLNGKEYKCKVSNKALPAPIEKTISKAKGQPREPQVYTLPPSREEMTKNQVSLTCLVKGFYPSDIAVEWESNGQPENNYKTTPPVLDSDGSFFLYSKLTVDKSRWQQGNVFSCSVMHEALHNHYTQKSLSLSPGGGGGSGGGGSGGGGSEVQLLESGGGLVQPGGSLRLSCAASGFTFSSYWMHWVRQAPGKGLEWVSYISGSGGYTNYADSVKGRFTISRDNSKNTLYLQMNSLRAEDTAVYYCARDRPYYYDIDVWGKGTTVTVSSGGGGSGGGGSGGGGSGGGGSDIQMTQSPSSLSASVGDRVTITCRASQSISSSLAWYQQKPGKAPKLLIYAASSLQSGVPSRFSGSGSGTDFTLTISSLQPEDFATYYCQQYKSYPVTFGQGTKVEIK
light: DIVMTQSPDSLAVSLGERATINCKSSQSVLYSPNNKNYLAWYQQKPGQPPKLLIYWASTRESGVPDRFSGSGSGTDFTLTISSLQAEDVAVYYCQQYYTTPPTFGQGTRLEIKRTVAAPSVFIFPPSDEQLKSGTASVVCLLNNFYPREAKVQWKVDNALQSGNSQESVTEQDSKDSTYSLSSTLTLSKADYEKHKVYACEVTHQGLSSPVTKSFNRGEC
B3: PMAB16 (bispecific antibody, human IgG1, kappa)
heavy: B2 heavy with T114L, I569M
light: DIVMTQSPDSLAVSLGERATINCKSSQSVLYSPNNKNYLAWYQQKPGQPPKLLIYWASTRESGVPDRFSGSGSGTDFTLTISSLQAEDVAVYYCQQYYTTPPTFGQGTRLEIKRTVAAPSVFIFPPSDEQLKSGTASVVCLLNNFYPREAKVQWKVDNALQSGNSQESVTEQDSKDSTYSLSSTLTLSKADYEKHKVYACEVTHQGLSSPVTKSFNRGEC
B4: PMAB56 (bispecific antibody, human IgG1, kappa)
heavy: B2 heavy with I569L
light: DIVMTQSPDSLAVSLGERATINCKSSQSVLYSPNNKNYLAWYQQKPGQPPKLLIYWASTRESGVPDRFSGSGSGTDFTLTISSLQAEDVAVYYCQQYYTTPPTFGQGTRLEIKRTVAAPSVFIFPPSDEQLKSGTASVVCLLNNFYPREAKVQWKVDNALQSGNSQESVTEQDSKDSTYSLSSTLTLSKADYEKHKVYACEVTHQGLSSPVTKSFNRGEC
B5: PMAB15 (bispecific antibody, human IgG1, kappa)
heavy: B2 heavy with T114L, Y513A, Y520S, N522Y, I569M
light: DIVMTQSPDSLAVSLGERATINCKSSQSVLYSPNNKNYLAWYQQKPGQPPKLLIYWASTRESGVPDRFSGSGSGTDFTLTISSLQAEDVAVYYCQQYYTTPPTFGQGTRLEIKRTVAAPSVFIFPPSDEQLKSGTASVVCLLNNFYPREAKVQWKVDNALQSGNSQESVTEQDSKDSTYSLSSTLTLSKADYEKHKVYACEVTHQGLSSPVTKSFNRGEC
B6: PMAB17 (bispecific antibody, human IgG1, kappa)
heavy: B2 heavy with T114D, Y513A, Y520S, N522Y, Y566G, D568Y, I569M
light: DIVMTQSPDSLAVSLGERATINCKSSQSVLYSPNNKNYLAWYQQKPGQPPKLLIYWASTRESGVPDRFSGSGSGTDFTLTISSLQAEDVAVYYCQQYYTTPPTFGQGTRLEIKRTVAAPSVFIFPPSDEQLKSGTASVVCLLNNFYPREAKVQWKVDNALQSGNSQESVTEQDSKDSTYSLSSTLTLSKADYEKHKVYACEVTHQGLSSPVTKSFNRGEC
B7: PMAB19 (bispecific antibody, human IgG1, kappa)
heavy: EVQLLESGGGLVQPGGSLRLSCAASGFTFSNSDMSWVRQAPGKGLEWVSGITISGGSTYYADSVKGRFTISRDNSKNTLYLQMNSLRAEDTAVYYCARGRGGSGWLDYWGQGTLVTVSSASTKGPSVFPLAPSSKSTSGGTAALGCLVKDYFPEPVTVSWNSGALTSGVHTFPAVLQSSGLYSLSSVVTVPSSSLGTQTYICNVNHKPSNTKVDKKVEPKSCDKTHTCPPCPAPEAAGAPSVFLFPPKPKDTLMISRTPEVTCVVVDVSHEDPEVKFNWYVDGVEVHNAKTKPREEQYNSTYRVVSVLTVLHQDWLNGKEYKCKVSNKALPAPIEKTISKAKGQPREPQVYTLPPSREEMTKNQVSLTCLVKGFYPSDIAVEWESNGQPENNYKTTPPVLDSDGSFFLYSKLTVDKSRWQQGNVFSCSVMHEALHNHYTQKSLSLSPGGGGGSGGGGSGGGGSEVQLLESGGGLVQPGGSLRLSCAASGFTFSSFWMHWVRQAPGKGLEWISYISGDSGYTNYADSVKGRFTISRDNSKNTLYLQMNSLRAEDTAVYYCARDRPYYYYMDVWGKGTTVTVSSGGGGSGGGGSGGGGSGGGGSDIQMTQSPSSLSASVGDRVTITCRASQSVSRSLAWYQQKPGKAPKLLIYAASSLQSGVPSRFSGSGSGTDFTLTISSLQPEDFATYYCQQYKSYPVTFGQGTKVEIK
light: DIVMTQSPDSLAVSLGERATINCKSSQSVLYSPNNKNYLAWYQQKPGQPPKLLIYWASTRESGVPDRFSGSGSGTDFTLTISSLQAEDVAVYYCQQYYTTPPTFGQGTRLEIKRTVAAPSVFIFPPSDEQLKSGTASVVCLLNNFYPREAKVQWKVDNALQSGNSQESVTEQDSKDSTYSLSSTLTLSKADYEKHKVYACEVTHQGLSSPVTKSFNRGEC
B8: PMAB25 (bispecific antibody, human IgG1, kappa)
heavy: B7 heavy with S494D, D517S
light: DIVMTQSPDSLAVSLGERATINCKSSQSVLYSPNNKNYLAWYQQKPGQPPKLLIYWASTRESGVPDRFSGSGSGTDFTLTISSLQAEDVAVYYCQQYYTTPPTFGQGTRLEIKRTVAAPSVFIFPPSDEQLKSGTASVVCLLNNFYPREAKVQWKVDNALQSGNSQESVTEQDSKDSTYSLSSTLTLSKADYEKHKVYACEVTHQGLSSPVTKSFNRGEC
B9: PMAB27 (bispecific antibody, human IgG1, kappa)
heavy: B7 heavy with S494D, Y520S
light: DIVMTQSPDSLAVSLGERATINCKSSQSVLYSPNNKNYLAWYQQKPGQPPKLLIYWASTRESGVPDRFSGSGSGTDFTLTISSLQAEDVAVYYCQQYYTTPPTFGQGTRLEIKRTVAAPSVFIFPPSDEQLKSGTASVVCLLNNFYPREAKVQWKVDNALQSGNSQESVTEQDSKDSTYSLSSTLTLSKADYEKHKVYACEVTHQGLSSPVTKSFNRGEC
B10: PMAB26 (bispecific antibody, human IgG1, kappa)
heavy: B7 heavy with S494D, S518G
light: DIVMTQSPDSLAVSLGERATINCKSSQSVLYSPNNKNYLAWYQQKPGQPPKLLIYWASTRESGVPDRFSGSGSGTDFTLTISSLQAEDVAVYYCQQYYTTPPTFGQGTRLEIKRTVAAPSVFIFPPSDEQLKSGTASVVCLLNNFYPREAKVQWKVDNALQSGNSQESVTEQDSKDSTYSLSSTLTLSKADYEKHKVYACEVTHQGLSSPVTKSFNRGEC
B11: PMAB23 (bispecific antibody, human IgG1, kappa)
heavy: B7 heavy with S494D, I511V
light: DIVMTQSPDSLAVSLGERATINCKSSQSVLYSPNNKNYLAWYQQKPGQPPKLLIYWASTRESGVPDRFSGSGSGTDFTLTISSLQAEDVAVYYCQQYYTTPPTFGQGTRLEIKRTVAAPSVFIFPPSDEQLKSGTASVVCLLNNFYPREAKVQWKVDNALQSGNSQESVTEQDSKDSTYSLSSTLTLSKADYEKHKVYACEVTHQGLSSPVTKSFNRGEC
B12: PMAB24 (bispecific antibody, human IgG1, kappa)
heavy: B7 heavy with S494D, Y513A
light: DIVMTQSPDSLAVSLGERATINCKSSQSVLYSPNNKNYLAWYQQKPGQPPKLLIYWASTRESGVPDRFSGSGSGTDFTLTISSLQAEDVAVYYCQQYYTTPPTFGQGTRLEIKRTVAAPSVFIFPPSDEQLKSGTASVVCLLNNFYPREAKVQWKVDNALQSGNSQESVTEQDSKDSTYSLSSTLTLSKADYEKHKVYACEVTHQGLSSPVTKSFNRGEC
B13: PMAB41 (bispecific antibody, human IgG1, kappa)
heavy: B7 heavy with S494D, K694Y
light: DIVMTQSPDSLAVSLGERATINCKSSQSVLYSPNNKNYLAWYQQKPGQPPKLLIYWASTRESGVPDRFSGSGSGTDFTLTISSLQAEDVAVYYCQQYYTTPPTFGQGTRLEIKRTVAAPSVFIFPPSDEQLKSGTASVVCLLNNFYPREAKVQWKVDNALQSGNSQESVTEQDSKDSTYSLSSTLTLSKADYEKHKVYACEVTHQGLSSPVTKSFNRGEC
B14: PMAB36 (bispecific antibody, human IgG1, kappa)
heavy: B7 heavy with S494D, V631I
light: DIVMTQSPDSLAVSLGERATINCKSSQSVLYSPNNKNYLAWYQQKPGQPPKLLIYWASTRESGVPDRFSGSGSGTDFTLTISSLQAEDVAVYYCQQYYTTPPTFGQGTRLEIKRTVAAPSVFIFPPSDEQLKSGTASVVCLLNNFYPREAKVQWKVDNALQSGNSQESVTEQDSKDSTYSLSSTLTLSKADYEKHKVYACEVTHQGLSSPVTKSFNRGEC
B15: PMAB20 (bispecific antibody, human IgG1, kappa)
heavy: B7 heavy with S494D, F495Y
light: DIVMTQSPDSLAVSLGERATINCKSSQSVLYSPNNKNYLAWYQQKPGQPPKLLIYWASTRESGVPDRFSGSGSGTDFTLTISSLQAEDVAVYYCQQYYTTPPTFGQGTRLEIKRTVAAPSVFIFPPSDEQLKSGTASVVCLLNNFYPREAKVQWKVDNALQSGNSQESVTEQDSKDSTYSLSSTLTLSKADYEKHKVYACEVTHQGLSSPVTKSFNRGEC
B16: PMAB28 (bispecific antibody, human IgG1, kappa)
heavy: B7 heavy with S494D, N522Y
light: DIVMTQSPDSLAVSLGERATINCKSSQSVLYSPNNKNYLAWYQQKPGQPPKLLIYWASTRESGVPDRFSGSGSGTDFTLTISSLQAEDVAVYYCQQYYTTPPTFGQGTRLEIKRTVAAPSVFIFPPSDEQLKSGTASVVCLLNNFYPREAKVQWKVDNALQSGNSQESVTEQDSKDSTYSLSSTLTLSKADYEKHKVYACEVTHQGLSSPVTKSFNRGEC
B17: PMAB42 (bispecific antibody, human IgG1, kappa)
heavy: B7 heavy with S494D, Y696T
light: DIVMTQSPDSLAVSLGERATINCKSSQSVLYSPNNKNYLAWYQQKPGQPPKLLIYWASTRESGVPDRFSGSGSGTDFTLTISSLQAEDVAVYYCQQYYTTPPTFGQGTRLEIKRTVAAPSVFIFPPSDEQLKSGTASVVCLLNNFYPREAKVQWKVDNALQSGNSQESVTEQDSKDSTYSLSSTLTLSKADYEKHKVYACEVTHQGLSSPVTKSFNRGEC
B18: PMAB37 (bispecific antibody, human IgG1, kappa)
heavy: B7 heavy with S494D, R633S
light: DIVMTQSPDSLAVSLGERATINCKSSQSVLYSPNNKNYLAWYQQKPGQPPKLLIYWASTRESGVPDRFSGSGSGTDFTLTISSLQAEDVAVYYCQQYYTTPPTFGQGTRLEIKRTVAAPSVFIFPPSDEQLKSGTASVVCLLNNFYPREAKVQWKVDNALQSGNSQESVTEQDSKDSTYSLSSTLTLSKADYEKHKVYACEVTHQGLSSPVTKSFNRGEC

target: T1, human MAdCAM; assay: BLI (Octet), binder on anti-human Fc tips

| Kd [nM] | fold reduction of affinity against PRNT1 [fold] | koff [s⁻¹] | kon [M⁻¹ s⁻¹] | Binder |
| --- | --- | --- | --- | --- |
| 563 | 40 | 0.0818 | 145000 | B1 |

target: T2, mouse MAdCAM; assay: BLI (Octet)

| Kd [nM] | koff [s⁻¹] | kon [M⁻¹ s⁻¹] | response | Binder |
| --- | --- | --- | --- | --- |
| 1740 | 0.217 | 125000 |  | B2 |
| 334 | 0.0828 | 248000 | 0.0407 | B3 |
| 161 | 0.00147 | 9120 |  | B4 |

target: T3, cyno MAdCAM (cynomolgus); assay: BLI (Octet)
T3 construct: also called cynomolgus MAdCAM

| Kd [nM] | koff [s⁻¹] | kon [M⁻¹ s⁻¹] | Binder |
| --- | --- | --- | --- |
| 379 | 0.0217 | 57100 | B2 |
| 96.5 | 0.0591 | 612000 | B4 |

target: T1, human MAdCAM; assay: BLI (Octet)

| Kd [nM] | koff [s⁻¹] | kon [M⁻¹ s⁻¹] | response | Binder |
| --- | --- | --- | --- | --- |
| 49.7 | 0.000716 | 14400 |  | B2 |
| 134 | 0.0631 | 472000 | 0.186 | B3 |
| 73.1 | 0.0839 | 1.15e+06 | 0.0655 | B5 |
| 208 | 0.00491 | 23600 |  | B4 |
| 17.1 | 0.0636 | 3.73e+06 | 0.0416 | B6 |

target: T2, mouse MAdCAM; assay: BLI (Octet), binder on AHC tips
Summary of the method: (§1)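 Kinetic rates and the dissociation constant come from a global one-to-one fit, performed in the Octet data analysis software, of binding measured on an Octet96 RED with anti-human IgG Fc biosensors. Test article at 10 μg/mL in assay buffer was captured on the tips for 240 s. MAdCAM-1, serially diluted over seven points from 200 nM down to 3.13 nM, then associated for 120 s before 120 s of dissociation in assay buffer.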

| Kd [nM] | koff [s⁻¹] | kon [M⁻¹ s⁻¹] | response | Binder |
| --- | --- | --- | --- | --- |
| 112 | 0.0177 | 158000 | 0.149 | B7 |
| 115 | 0.012 | 105000 | 0.133 | B8 |
| 1020 | 0.00469 | 4580 | 0.0278 | B9 |
| 134 | 0.0118 | 87900 | 0.132 | B10 |
| 141 | 0.0178 | 126000 | 0.141 | B11 |
| 52.4 | 0.00596 | 114000 | 0.0549 | B12 |
| 119 | 0.0246 | 208000 | 0.189 | B13 |
| 206 | 0.0251 | 122000 | 0.169 | B14 |
| 118 | 0.0193 | 163000 | 0.153 | B15 |
| 103 | 0.00886 | 85900 | 0.083 | B16 |
| 105 | 0.017 | 162000 | 0.129 | B17 |
| 176 | 0.0178 | 101000 | 0.152 | B18 |

target: T1, human MAdCAM; assay: BLI (Octet), binder on AHC tips
Summary of the method: as §1

| Kd [nM] | koff [s⁻¹] | kon [M⁻¹ s⁻¹] | Binder |
| --- | --- | --- | --- |
| 31.2 | 0.0168 | 540000 | B7 |
| 43.6 | 0.0212 | 486000 | B8 |
| 92.2 | 0.128 |  | B9 |
| 138 | 0.0658 | 476000 | B10 |
| 110 | 0.0389 | 355000 | B11 |
| 33.2 | 0.0134 | 404000 | B12 |
| 109 | 0.0325 | 298000 | B14 |
| 90.5 | 0.0372 | 411000 | B15 |
| 86.2 | 0.0902 | 1.05e+06 | B16 |
| 395 | 0.114 | 288000 | B17 |
| 285 | 0.0838 | 294000 | B18 |
